The values below come from patent US10703784B2, “Antigens and epitopes derived from Mycobacterium tuberculosis” (priority 2011, dated 2020).

B1: Rv3025c: MTB protein, novel CD4 T cell antigen; Intermediary metabolism and respiration, Island 2 (protein, listed as Mycobacterium tuberculosis)
chain: MAYLDHAATTPMHPAAIEAMAAVQRTIGNASSLHTSGRSARRRIEEARELIADKLGARPSEVIFTAGGTESDNLAVKGIYWARRDAEPHRRRIVTTEVEHHAVLDSVNWLVEHEGAHVTWLPTAADGSVSATALREALQSHDDVALVSVMWANNEVGTILPIAEMSVVAMEFGVPMHSDAIQAVGQLPLDFGASGLSAMSVAGHKFGGPPGVGALLLRRDVTCVPLMHGGGQERDIRSGTPDVASAVGMATAAQIAVDGLEENSARLRLLRDRLVEGVLAEIDDVCLNGADDPMRLAGNAHFTFRGCEGDALLMLLDANGIECSTGSACTAGVAQPSHVLIAMGVDAASARGSLRLSLGHTSVEADVDAALEVLPGAVARARRAALAAAGASR
B2: Rv0299: MTB protein, novel CD4 T cell antigen; Conserved hypotheticals (protein, listed as Mycobacterium tuberculosis)
chain: MIAPGDIAPRRDSEHELYVAVLSNALHRAADTGRVITCPFIPGRVPEDLLAMVVAVEQPNGTLLPELVQWLHVAALGAPLGNAGVAALREAASVVTALLC
B3: Rv3012c: MTB protein, novel CD4 T cell antigen; Information pathways (protein, listed as Mycobacterium tuberculosis)
chain: MSQISRDEVAHLARLARLALTETELDSFAGQLDAILTHVSQIQAVDVTGVQATDNPLKDVNVTRPDETVPCLTQRQVLDQAPDAVDGRFAVPQILGDEQ
B4: Rv0297: MTB protein, novel CD4 T cell antigen; PE/PPE (protein, listed as Mycobacterium tuberculosis)
chain: MSFVIAQPEMIAAAAGELASIRSAINAANAAAAAQTTGVMSAAADEVSTAVAALFSSHAQAYQAASAQAAAFHAQVVRTLTVDAGAYASAEAANAGPNMLAAVNAPAQALLGRPLIGNGANGAPGTGQAGGDGGLLFGNGGNGGSGAPGQAGGAGGAAGFFGNGGNGGDGGAGANGGAGGTAGWFFGFGGNGGAGGIGVAGINGGLGGAGGDGGNAGFFGNGGNGGMGGAGAAGVNAVNPGLATPVTPAANGGNGLNLVGVPGTAGGGADGANGSAIGQAGGAGGDGGNASTSGGIGIAQTGGAGGAGGAGGDGAPGGNGGNGGSVEHTGATGSSASGGNGATGGNGGVGAPGGAGGNGGHVSGGSVNTAGAGGKGGNGGTGGAGGPGGHGGSVLSGPVGDSGNGGAGGDGGAGVSATDIAGTGGRGGNGGHGGLWIGNGGDGGAGGVGGVGGAGAAGAIGGHGGDGGSVNTPIGGSEAGDGGKGGLGGDGGGRGIFGQFGAGGAGGAGGVGGAGGAGGTGGGGGNGGAIFNAGTPGAAGTGGDGGVGGTGAAGGKGGAGGSGGVNGATGADGAKGLDGATGGKGNNGNPG
B5: Rv0298: MTB protein, novel CD4 T cell antigen; Conserved hypotheticals (protein, listed as Mycobacterium tuberculosis)
chain: MTKEKISVTVDAAVLAAIDADARAAGLNRSEMIEQALRNEHLRVALRDYTAKTVPALDIDAYAQRVYQANRAAGS
B6: Rv0278c: MTB protein, novel CD4 T cell antigen; PE/PPE (protein, listed as Mycobacterium tuberculosis)
chain: MSFVIAAPEVIAAAATDLASLGSSISAANAAAAANTTALMAAGADEVSTAIAALFGAHGQAYQALSAQAQAFHAQFVQALTSGGGAYAAAEAAAVSPLLDPINEFFLANTGRPLIGNGANGAPGTGANGGDGGWLIGNGGAGGSGAAGVNGGAGGNGGAGGNGGAGGLIGNGGAGGAGGVASSGIGGSGGAGGNAMLFGAGGAGGAGGGVVALTGGAGGAGGAGGNAGLLFGAAGVGGAGGFTNGSALGGAGGAGGAGGLFATGGVGGSGGAGSSGGAGGAGGAGGLFGAGGTGGHGGFADSSFGGVGGAGGAGGLFGAGGEGGSGGHSLVAGGDGGAGGNAGMLALGAAGGAGGIGGDGGTLTAGGIGGAGGAGGNAGLLFGSGGSGGAGGFGFADGGQGGPGGNAGTVFGSGGAGGNGGVGQGFAGGIGGAGGTPGLIGNGGNGGNGGASAVTGGNGGIGGTGVLIGNGGNGGSGGIGAGKAGVGGVSGLLLGLDGFNAPASTSPLHTLQQNVLNVVNEPFQTLTGRPLIGNGANGTPGTGADGGAGGWLFGNGANGTPGTGAAGGAGGWLFGNGGNGGHGATNTAATATGGAGGAGGILFGTGGNGGTGGIATGAGGIGGAGGAGGVSLLIGSGGTGGNGGNSIGVAGIGGAGGRGGDAGLLFGAAGTGGHGAAGGVPAGVGGAGGNGGLFANGGAGGAGGFNAAGGNGGNGGLFGTGGTGGAGTNFGAGGNGGNGGLFGAGGTGGAAGSGGSGITTGGGGHGGNAGLLSLGASGGAGGSGGASSLAGGAGGTGGNGALLFGFRGAGGAGGHGGAALTSIQQGGAGGAGGNGGLLFGSAGAGGAGGSGANALGAGTGGTGGDGGHAGVFGNGGDGGCRRVWRRYRRQRWCRRQRRADRQRRQRRQRRQSRGHARCRRHRRAAARRERTQRLAIAGRPATTRGVEGISCSPQMMP
B7: Rv0279c: MTB protein, novel CD4 T cell antigen; PE/PPE (protein, listed as Mycobacterium tuberculosis)
chain: MSFVIAAPEVIAAAATDLASLESSIAAANAAAAANTTALLAAGADEVSTAVAALFGAHGQAYQALSAQAQAFHAQFVQALTSGGGAYAAAEAAATSPLLAPINEFFLANTGRPLIGNGTNGAPGTGANGGDGGWLIGNGGAGGSGAAGVNGGAGGNGGAGGLIGNGGAGGAGGRASTGTGGAGGAGGAAGMLFGAAGVGGPGGFAAAFGATGGAGGAGGNGGLFADGGVGGAGGATDAGTGGAGGSGGNGGLFGAGGTGGPGGFGIFGGGAGGDGGSGGLFGAGGTGGSGGTSIINVGGNGGAGGDAGMLSLGAAGGAGGSGGSNPDGGGGAGGIGGDGGTLFGSGGAGGVCGLGFDAGGAGGAGGKAGLLIGAGGAGGAGGGSFAGAGGTGGAGGAPGLVGNAGNGGNGGASANGAGAAGGAGGSGVLIGNGGNGGSGGTGAPAGTAGAGGLGGQLLGRDGFNAPASTPLHTLQQQILNAINEPTQALTGRPLIGNGANGTPGTGADGGAGGWLFGNGGNGGHGATGADGGDGGSGGAGGILSGIGGTGGSGGIGTTGQGGTGGTGGAALLIGSGGTGGSGGFGLDTGGAGGRGGDAGLFLGAAGTGGQAALSQNFIGAGGTAGAGGTGGLFANGGAGGAGGFGANGGTGGNGLLFGAGGTGGAGTLGADGGAGGHGGLFGAGGTGGAGGSSGGTFGGNGGSGGNAGLLALGASGGAGGSGGSALNVGGTGGVGGNGGSGGSLFGFGGAGGTGGSSGIGSSGGTGGDGGTAGVFGNGGDGGAGGFGADTGGNSSSVPNAVLIGNGGNGGNGGKAGGTPGAGGTSGLIIGENGLNGL

For the first experiment, the system named is PBMCs from LTBI donors (IFN-γ production). It counts as cell-based, human. The following applies: fraction of 28 LTBI donors responding to epitopes of the antigen, ex vivo IFN-γ ELISPOT.
On to B1, for which the Resp. freq. was 14%.
On the same count and under the same terms, the figure for B2 is 14%.
Same read-out and setting: as for B3, the figure is 14%; as for B4, 14%.
Regarding B5, the Resp. freq. is 11%.
B6 showed a Resp. freq. of 11%.
Consider B7, for which the Resp. freq. was found to be 11%.

Still in this experiment, the particulars now being: total spot-forming cells, LTBI donors, ex vivo IFN-γ ELISPOT.
For the molecule B1, the “Total SFC” value came out at 423 SFC.
In the case of B2, the “Total SFC” value stood at 467 SFC.
For the molecule B3, the “Total SFC” value came out at 233 SFC.
On the same count and under the same terms, as for B4, the figure is 154 SFC.
With B5, the “Total SFC” value was determined as 783 SFC.
The same measure, in the same setting: as for B6, the figure is 45 SFC.
On the same count and under the same terms, the figure for B7 is 45 SFC.
